Data from the supplement of paper PMC9170038.

What follows are sequences tested on MS2 coat protein (assay: apparent KD of MS2 coat protein, switch OFF state (with FMN for OFF switches, without FMN for ON switches); designed switch direction (-1 OFF switch, 1 ON switch): -1; higher = weaker reporter binding). Conditions: FMN input: 0 or 200 uM; Eterna round: R93 (includes R88 designs).
Procedure, shortened: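 Designed RNA switches were transcribed on-chip from Illumina sequencing clusters. SNAP-549-labelled MS2 coat protein was titrated onto them in twofold steps from 0.7 or 1.5 nM to 3 µM in 100 mM Tris-HCl pH 7.5, 80 mM KCl, 4 mM MgCl2, either without or with constant ligand. Apparent KD reflects the per-design median of normalised cluster binding-curve fits.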
In the case of “AACAAACAUGAGGAUCACCCAUGUCAGGAUAUCGAAACAACAAACAACAAACAACAAACGAGAAGGGACAACAA [e1]”, the “apparent KD of MS2 coat protein” value was 0.0238 µM. “AAAAAACAUGAGGAUCACCCAUGUGAGGAUAUCCAAAAGUUAAAUAAAAAGACGAAAAGGAGAAGGCGCAAAAA [Mat - Mod of Eli]” was tested, and the “apparent KD of MS2 coat protein” value was 0.0394 µM. In the case of “CAGUACUGAGGAUAUACAUGAGGAUCACCCAUGUGGUCAAGCUACGAAAGUAGCAAAAGUAGAAGGCAGUACUG [Ex3: 811]”, the “apparent KD of MS2 coat protein” value was 0.0346 µM. In the case of “AAGAAGUCAGGAUAUGCCAGAGAUCACGAAAGUGAUGAGUAGCAGAAGGGACAUGAGGAUCACCCAUGUAAAGA [Opal 6]”, the “apparent KD of MS2 coat protein” value was 0.0465 µM. “AAUAAGACAGGAUAUACGAAAAUAAGCGGAAACGCAAAGGGACAUGAGGAUCACCCAUGUAGAAGGGUCGAUAA [Tetraloop... 61% 3]” was tested, and the “apparent KD of MS2 coat protein” value was 0.19 µM. “AAGGGACAUGAGGAUCACCCAUGUCAGGAUAUGAUGCGAAUAAAGAAAGAAGAAAGCAUCAGAAGGGACACCAA [58%, Disencluded 3, 4]” was tested, and the “apparent KD of MS2 coat protein” value was 0.0337 µM. For “AAAACACAUGAGGAUCACCCAUGUGAGGAUAUGCUAUGGAAAUAAAAAAUAAAACAUAGCAGAAGGCACAAAAA [Mat - Exclusion 1 - Eli mod - D40]”, the “apparent KD of MS2 coat protein” value was 0.039 µM. In the case of “UAAAGACAUGAGGAUCACCCAUGUGAGGAUAUCGGAGGUGACGGAACAUCGAGUUCGGCGAGAAGGCGCAGGAA [JR_Exc001_Sub408]”, the “apparent KD of MS2 coat protein” value was 0.049 µM. For “AAAAAGUCAGGAUAUGUCAAAAGUCACAAAAGUGACAAAAGACAGAAGGGACAUGAGGAUCACCCAUGUAAAAA [Mod of Eli]”, the “apparent KD of MS2 coat protein” value was 0.0461 µM. In the case of “CGCUAGUCAGGAUAUACGAACAUGUCAAAAGACGUGAAGGGACAUGAGGAUCACCCAUGUAGAAGGGACUAGCG [Mat - Exclusion 2 - JL mod - D4]”, the “apparent KD of MS2 coat protein” value was 0.131 µM. With “AACAUACAUGAGGAUCACCCAUGUCAGGAUAUGCCGGGUUAGAACCAAAAAAAAAAACGUAGAAGGGACAAAAA [Bilbo Confounded 4 - Jieux - Exclusion 1]” the “apparent KD of MS2 coat protein” value was 0.14 µM. For “AACAGUACAGGAUAUACAUGAGGAUCACCCAUGUGAGAAUUAAGUGGAAGACCACAAAGUAGAAGGGUACUGAA [Mat - Exclusion 3 - JL mod - D10]”, the “apparent KD of MS2 coat protein” value was 0.189 µM. In the case of “AAAGAACAUGAGGAUCACCCAUGUGAGGAUAUACGAGCGUGAGAAAGAUAAAACGAGCGUAGAAGGCACAAGAA [JR_Exclusion1_Sub4]”, the “apparent KD of MS2 coat protein” value was 0.0493 µM. In the case of “AAUAAACAUGAGGAUCACCCAUGUGAGGAUAUGGUAUAAUUAGGACAGUAAUGAUAAACCAGAAGGCACAAAUA [JR_Exc001_Sub1103]”, the “apparent KD of MS2 coat protein” value was 0.0426 µM. For “AAAAAGUCAGGAUAUGCAUGAGCAAAAAAAAAAAAGCUCAUGCAGAAGGGACAUGAGGAUCACCCAUGUAAAAA [Ex 4 May 10]”, the “apparent KD of MS2 coat protein” value was 0.0486 µM. “AGUUGGCGAGGAUAUACAUGAGGAUCACCCAUGUAAAAUAAAUAAAAAAUAGGGAAAAGUAGAAGGCGCUGACA [73%, Moding Norbert Elias, 13]” was tested, and the “apparent KD of MS2 coat protein” value was 0.0963 µM. “AAAGGAUCAGGAUAUGUGUGGAAAAAGUGUAUUCAAAAAAAACAUGAGGAUCACCCAUGUAGAAGGGAUCCAAA [Mod of 2Normal (20/19) by Nando, Round 1]” was tested, and the “apparent KD of MS2 coat protein” value was 0.397 µM. In the case of “AUCUAGUGAGGAUAUCGUACAAUAUGGAAAACAUAGAGGUACGAGAAGGCACAUGAGGAUCACCCAUGUAAAAC [May 100]”, the “apparent KD of MS2 coat protein” value was 0.0365 µM. With “AAAAAGUCAGGAUAUGGCAAAGGUCACGAAAGUGACAAAGGCUAGAAGGGACAUGAGGAUCACCCAUGUAAAAA [Fiskers Exclusion 4 D3]” the “apparent KD of MS2 coat protein” value was 0.0353 µM. In the case of “AACAUACAUGAGGAUCACCCAUGUCAGGAUAUGCCGGGUUAGAGCCAACUAAAAAAACGUAGAAGGGACAAAAA [Bilbo Confounded 6 - Jieux - Exclusion 1]”, the “apparent KD of MS2 coat protein” value was 0.0557 µM. In the case of “AUCUACCUAGGAUAUACAUGAGGAUCACCCAUGUACAGAUACAACAAGGGAAACACACGUAGAAGGAGGAAGAU [JR_Exc003_Sub1206]”, the “apparent KD of MS2 coat protein” value was 0.0608 µM. For “AUAGGCCUAGGAUAUACAUGAGGAUCACCCAUGUAAAUAAAUCGAUCAUGAUAAACGUGUAGAAGGAGGAAUAA [JR_Exc003_Sub206]”, the “apparent KD of MS2 coat protein” value was 0.0395 µM. In the case of “GGUUGUGAAGGAUAUACAUGAGGAUCACCCAUGUGAGAGAAAAAAGUGAGAAAGAAAAGUAGAAGGUCGUGACG [salish99-ex3-73]”, the “apparent KD of MS2 coat protein” value was 0.0402 µM. With “AAGAAGAGAGGAUAUACUAAAGAAAUGAAAAGAAAUAAAGAACAUGAGGAUCACCCAUGUAGAAGGCUCAAGAA ['Ammu Ahotepre]” the “apparent KD of MS2 coat protein” value was 0.021 µM. For “AAGACUAGAGGAUAUACAUGAGGAUCACCCAUGUAACUGUCAGGUGACUGACGGAGAUGUAGAAGGCUAGUCAA [Wider Swing]”, the “apparent KD of MS2 coat protein” value was 0.0412 µM. For “AACAUGUCAGGAUAUAUAAGAAAAGAAAAGAAAGAAAAGAAAUAGAAGGGACAUGAGGAUCACCCAUGUAAGAA [EteRNA is fun!]”, the “apparent KD of MS2 coat protein” value was 0.029 µM. In the case of “AAAAAGAUAGGAUAUACGUACAUGUCGAAAGACGUGAAGGGACAUGAGGAUCACCCAUGUAGAAGGAUUAAAAA [Mat - Exclusion 2 - JL mod - D90]”, the “apparent KD of MS2 coat protein” value was 0.0145 µM. “AAAAAGGGAGGAUAUGCAUAAAAAAAAAAAAAAAAAAAAAAACAUGAGGAUCACCCAUGUAGAAGGCCCAAAAA [Dora Explored - Jieux - Exclusion 2]” was tested, and the “apparent KD of MS2 coat protein” value was 0.0363 µM. For “AAAAAGGGAGGAUAUGCAUACACACAAAAAAAAAAACCGGGACAUGAGGAUCACCCAUGUAGAAGGCCCAAAAA [Dora Explored 6 - Jieux - Exclusion 2]”, the “apparent KD of MS2 coat protein” value was 0.025 µM. With “AAGAAUUGAGGAUAUACAAGGAAGAAAGAAAAGAAAAGAAAACAUGAGGAUCACCCAUGUAGAAGGCAAUAGAA [EteRNA is fun!]” the “apparent KD of MS2 coat protein” value was 0.0125 µM. With “AAAAAGGCAGGAUAUACGAACAUGUCAAAAGACGUGAAGGGACAUGAGGAUCACCCAUGUAGAAGGGUCAAGAA [JL Stem Breaker 18]” the “apparent KD of MS2 coat protein” value was 0.0521 µM. “AAAGGACAAGGAUAUACAUGAGGAUCACCCAUGUAAAAAACAUAAUAAAAUAACUUAUGUAGAAGGUGUCCAAA [Mat - Exclusion 3 - Eli mod - D99]” was tested, and the “apparent KD of MS2 coat protein” value was 0.0571 µM. In the case of “AAACGUAGAGGAUAUACGAAAAGAUUACGAAAGUAAUCGGGACAUGAGGAUCACCCAUGUAGAAGGCUACGAAA [Mod2 of Meechl 64% 3]”, the “apparent KD of MS2 coat protein” value was 0.061 µM. With “AAAACGUGAGGAUAUACUAAAAUAAAAAAUUAUGUUAAAAAACAUGAGGAUCACCCAUGUAGAAGGCACAAAAA [AJ 3]” the “apparent KD of MS2 coat protein” value was 0.0286 µM. In the case of “AGGAAACAUGAGGAUCACCCAUGUGAGGAUAUGAACGAAAAUAAAUAAAAAUAAAAGUUCAGAAGGCAUAAAAA [66%, Wbt, 4]”, the “apparent KD of MS2 coat protein” value was 0.0356 µM. With “AAAAAGUCAGGAUAUAUCAAAGCCUAUGAAAGUGGGAAAGGGUAGAAGGGACAUGAGGAUCACCCAUGUAAAAA [Banishment 10 - Jieux - Exclusion 4]” the “apparent KD of MS2 coat protein” value was 0.0385 µM. With “ACAAACCGAGGAUAUACAUGAGGAUCACCCAUGUAGACGAACACAUGCGUCAUCACCAGUAGAAGGUGGAAAAC [Telaandi]” the “apparent KD of MS2 coat protein” value was 0.0263 µM. For “AUAAUGUGAGGAUAUACAUGAGGAUCACCCAUGUAAUUAAAAAGGAGAGACACAAUUCGUAGAAGGUACAUUUA [JR_Exc003_Sub509]”, the “apparent KD of MS2 coat protein” value was 0.0263 µM. With “AAGUAGGUAGGAUAUGCAUAGAUAUAUAUUCAUGUGGAACUACAUGAGGAUCACCCAUGUAGAAGGACCUAAUA [AJ 42]” the “apparent KD of MS2 coat protein” value was 0.0171 µM. For “AAGAAACAUGAGGAUCACCCAUGUCAGGAUAUAGAAAAGAAAAGAAAAGAAAGAAGAACUAGAAGGGACAAAGG [Menkare]”, the “apparent KD of MS2 coat protein” value was 0.034 µM. “AAGAAACAAGGAUAUACAAGGAAGAAAGAAAAGAAAAGAAAACAUGAGGAUCACCCAUGUAGAAGGUGUUAGAA [EteRNA is fun!]” was tested, and the “apparent KD of MS2 coat protein” value was 0.0279 µM. “AAGAAGCUAGGAUAUACAAAAUAAAAGAAAAGAAAGAAAGAACAUGAGGAUCACCCAUGUAGAAGGAGCAAGAA [Sebkay]” was tested, and the “apparent KD of MS2 coat protein” value was 0.0214 µM. For “GAAAACAGAGGAUAUACAUGAUUAUGACGAAAGUCAUAAAAACAUGAGGAUCACCCAUGUAGAAGGCUGAAGAA [Meechl MS2 Ex2 2]”, the “apparent KD of MS2 coat protein” value was 0.164 µM. “AAGAAUGCAGGAUAUACAUGAGGAUCACCCAUGUAAAAGAAAGAAGGGAAAGAGAAAAGUAGAAGGGCAAAGAA [Bakare Tantamani]” was tested, and the “apparent KD of MS2 coat protein” value was 0.0472 µM. “UCCGAACAUGAGGAUCACCCAUGUCAGGAUAUACACCCAGCAUGUAAACCAUGCUCAAGUAGAAGGGACGGGUG [Teisaes]” was tested, and the “apparent KD of MS2 coat protein” value was 0.0257 µM.
